Assay: protease stability score; higher = more stable; yeast display proteolysis, trypsin and chymotrypsin;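 further: log10 excess protease needed over predicted unfolded state with 0 meaning unfolded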

Sequence | protease stability score
DDEEARDIIRLMRHGNFDNIVKQMDPNVTLRYGNNTFHGRERAKHAAQRLKTHIDHVHLKDYKVHGDKIVIDMVYNVNGKHYEVRVVMHIHNGRIQKVQWDFRDDRDETDAEKRLS | 1.28
DDEEARHRLSRISKMLEENDPQRFSNQADEDVRVDIGDKEIHGKEEVARQLTEWRKQVDHVRVTSVEVQGDHASVQFRADVNGRHRVLTLYMKWTNGRVKEMHIKEG | 0.857
DDEEDHRVARLASTALQTGDPNQFKNLVDEDVKADVGDKTYHGHEQVMEMFKKFVDQVDHIKVKRVEVDGETARVDAEADINGRTKKIVLDVQAHNGHIKRVQMETS | 0.39
DDEEDKTLNQKAREALTDNDPDQMMNLFDKDANVDVGEKRVHGREQLRRYMQDLHRMVDHVQVDSVKVDGEKLEFKVTLQYNGRRLKVVFRINYHDGRAKNMHIEFTDEKTLKQFEK | 0.882
DDEEHRRILERFVRAFQTGDEDDLRNLADPNAKAQVGDKQVHGMDKFATHIRELVDRIDHIDVKSLTASGNTLHARIKFRVNGHDVTVVMRIQVHNGKLKRIEIDPEVVRQIEG | 1.22
DDEEHVEEMMRRQQNNYKHGDFEELARQFDPNATVNVGDKTYHGREQIRDWYRKRKEDVDSMDLQVQHFSVDNGRIRIQATERQHFNGQDDSTHFQAEARKHGDKAKLKHFRQQ | -0.052
DDEEIKRLVKKAAHAFVDNDPDQFIRLLRDDVRARYGDKEVRGKESIKKQLQHWIHRIDHVEVKSFRAHGNSAEAHIVAIINGRTFDVHMDITFDNGRAHTVVFDVRSEEEFKEAMT | 1.49
DDEEKHKLADEVLHILRTGDHDSMARLADENAKAEIGDSRFHGRDHIRKLVKEFRDTADHIRVIDYRVKGDKIVLRMEFVFNGKTSEVNVVMRFHNGRIKDIEVDPTQVRQMEK | 1.03
DDEEKKELADEIAQVIRTGDPKRMVEMVDENATAQVGDQKVHGRENIDKMMQNIRRTADHIRIEHVQVHGEEIRIKAKFHINGHTTTWVFSAEVHNGRIQRASLDRR | 1
DDEELKRQAEEFLKNVKTGNHQELVKQMDPNVKVDVGDKRLQGRETAAHWFVKLVEQVDDFHVQTFDVHGETLEMHFVMEINGHRLQMVLRAEVHNGHIQEMSIDYRDPDRLRKVLS | 0.392
DDEELQELVKVIQDNDKDRWRENIDKDARVRYGDKQWEGRNEVDKLMRELLEKADHIQFNSIHVQGNSIVVDVNINVNGKELDVIIEMEVRDGRIKHVKFQWRNEELHRIMDEILS | 0.879
DDEEMTQLLRRILKALEKNDEDLYNQNFDEDVKINVGDKRYNGREDASKLMKTWNKQIDHFQVNDYTVSGEQLEMNITFQVDGRNVSFNVTATAKNGRVKEQTFDPSAMRKARS | -0.077
DDEENKKINEQLKTGDPQTFVDQADENARFRIGDKDFQGREDAKKIADLRKNRVDHIRYREVHFEGDKFVLDAVATFNGRRIKFVVHVTFHNGRLKYYRIKVTNEEVRRQLDELNS | 0.8
DDEEQKERAEEIIKAIQTGDPQQFNRQADPNVEVKIGDTNVHGRENAARNIAERVQRADHIQVETMDVDGNNVVIDMVIQHNGRTKRFIVTLHFQNGRVKKMSIEDS | 0.459
DDEEQRKLAKEFIDLLRTGDEEHIAHQADKDVTFQIGDKRYTGQEELLKYMKHLVDRVDHIEVEEVDVRGNKVNVTVVVRYNGKRVTLNFDLEFSNGRLIHMSVDPDQQRQLDG | 1.18
DDEERAEQFFRDIVEAIRTNDEERLRHLFDENAHAQVGDKTLHGREQIVKEIVSMAQSADHVSFQLRDLSVDGETITFYFKVQYTRNGRQTSKDVIIVARQSGDKLSVKTEVDS | 1.4
DDEERAHEIFKKYQHVLKSNDEDKDRELMDPNARLHIGDKQYHGREQVTKYWHEVLTHADHLEANLKDFRVKGESINIVYTFRQNEDGRDSQVIIEMVMKRQGDHYTVTDNTQK | -0.044
DDEERHKDAQKAMHLYQRGNPDEMDRLMDPNVKVRVGDETYHGREQANRAFKKIRDRVDHINVKSVSVHGNRINIVAEVNINGRNDILRVIIDYHNGRARRVIITHK | 0.204

Sequence | protease stability score
DDEERRKLADDLIKILQTGSSNDVRKLVDPNAKAHYGEKDFHGERELAKFMKEIADNVDHIEIETMEVHGDRVKIVMVIVHNGKQRRFVMVLVVHNGRIKKASQTSQ | 1.46
DDEESEKFAEDAMRILQTGDEEKFVRQADPNARVVYGEKTVHGREEAKKEVKTFRDRVDKIDVHHVEVTNGKAFLDATFRFDGRDRHYVVEIVRHNGRIKQMVMKKK | -0.166
DDEETAKRHQREWQKNLEFNDEKSIQELVDPNARWQIGDKEVHGREEWARQLRRLREDVDHVQIHVKHVEVSNGQYNLNILIKYNINGETHKIRLVYVAQKNNGRVLVRSVEHK | 0.655
DDEFLKKVVEVIRHGDEERLVRNFDENARMRIGDKVFHGREEIKKALHRIREHADHIDVESVDQQGDTLDADVFIEVNGKNWVFKLKVTVHNGRIKEVSWHVRDEDADNIMKEIMS | 1.8
DDEHANSMADQLQKAFETGDEDQIRRLMDKDVSINYGDKRIKGSRELAHWVATLRRQVDSIEYKSIHVKGDKVDIDVVVNVNGRNARFTLVARFSNGKFKELRVDPENMKRLKS | 1.47
DDEHFDHLRKVLKTGDFERLNQLMDPNASADIGDKRYHGRESLEEMFRKLHTQIDHIEFKSMDLQGNKLKYTLVMTFNGREVTVTVVVEVQNGHIKRISIQARNESDREKLKHALD | 1.46
DDEHIKEFLQVVRRGDPDKILKMIDPNAHLQVGDKDLHGRDAVKKAQDKLETTVDHFEVEEVHFQGDNVVVTYLLNVNGKSITVQLVANIEDGRIKSMRIEARSEEDHKILNEQQG | 0.693
DDEHVRRLAEQLFKAMQSGDPDTVESLFDKNARVQIGDKSVSGHEDISKIFHDNWKRVDEFQLRTYDAHNGRVQLRFELHINGRRADITLSIEFRNGKIQEAVFEFRDESVRQQFRT | 1.29
DDEIERTMKNLMEAFSEGDPDKFRRNADPNAKMNVGDKSFHGMDDFLHQLKQLNKQARIEIEHITVTAQGDHAEVHAQFVNTENGRPRTKRVVYRAEVRNGQAKSIKLEDTK | 0.176
DDEIRRQVHRYLRALQRNDEKLASDLLDPNAKFVYGDKTVHGREQHKKELRKMKDQWEFSVDVKKVKVQGNKIKVTADIRVDVNGRPMSHRYVVIFHAHNGKIKNAEFRMDEKYYRDVKR | 0.208
DDEIWSQIEHLLEIFKTGDEERYREQVDPNAKADVGDKKIHGRERIARHLYHLAKNMTIKREVDSVNIQGNEVSASFEVTVNINGNPIRFTVRVNYNFHNGRLQTFEIDVSEDLTKHMDS | 1.9
DDEKAKEMMKVWKSGDEEDLVRLADENVSVVVGDHRVRGREEFKKWLHRLSEQVDRWKVDSVHAHNGRIQIDAVYVVNGQEFRLTIHVTMRNGRIKTVRAQVTTEDDERKLKKVVS | 0.63
DDEKARQQVREFIRAMETGDEDSMVQQLDENAHVHIGDHVWRGREQARNAFKEFVKQFDRIEVKRVEYRNGDVVIDAVANVNGVRVRIIFKIHIHNGRIKNLRIEYRDEEEKKQLDG | 1.99
DDEKARRWLHTMRDVINRGDPDKWRKLVDENVRLEIGDKEYHGREDARKWMKELRDQVDEIHIKTISAHGDKIEVTMEYKHNGRTRRITVVARIRDGRIKMVQVRDS | 1.8
DDEKKAKSFVDDLRKILKTGDPEQMRDNADKDARLVIGDQTFHGREDAASKLVTLVKRFDHARFNVKSMTMHNGRIDVDMTFTLRVDGKNERHRVKITVEEHNGRLKMKEVHWS | 0.991
DDEKKARTLLKQLKEAFENNDEDRARQLMDKDVRLDIGDKTYHGREEAAEAWHRLVETVDHMDMKVRHIENRNGHMVVNADMVLHRDGRQKRLKVTFTARDDNGHAVLVHVSFD | 1.45
DDEKLANEFQTKFRSVMETNDEENMRKLADKDARLNVGDDDVHGREQVARYLAEVLRRVDTFRVRYEDVDIRNGQVRVTMEIHNNHNGSDRTDRVHLQMEVTGDTASLKRITEG | 0.259
DDEKLAREFQEKLREALRSGDDKKMVELMDKDARVVVGDKEIQGREEIAKTWATKATQADHVEVHIRNLRVENGRVTVNVEVRLNNNGQDRTNNNTLQNEVHNGHIHMKRQKEN | -0.274

Source: the NTF2 design screens of Basanta et al. (2020)
